Data: patent US20230025280A1, “PH RESPONSIVE COMPOSITIONS, FORMULATIONS, AND METHODS OF IMAGING A TUMOR” (ONCONANO MEDICINE, INC, priority 2019, published 2023)
“And” between values parts separate entries of the source, which are not always exact repeats. Equal values may be shown once.

Legend:
[1] = Stability of Compound 1 at long-term storage condition of −80° C.; format: physicochemical
[2] = tested on: solid cancers (HNSCC, breast cancer, esophageal cancer, or colorectal cancer); assay: Intraoperative fluorescence imaging of tumors (in vivo and back table; MFI, CNR, TBR); set-up: species or system human; details: for In Vivo CNR / In Vivo TBR: per patient, open field cameras; for Patient tumors showing Compound 1 fluorescence intraoperatively: 0.1 to 1.2 mg/kg, 24±8 h post dose; for Tumors visualized intraoperatively by Compound 1 fluorescence / Tumors that could not be visualized intraoperatively: Phase 1 overall
Source text: (§1) During surgery, intraoperative images of Compound 1 fluorescence were obtained from the primary tumors and metastatic lymph nodes as well as the surrounding tissue which include normal noncancerous tissues using NIR camera(s). This may be in vivo and/or ex vivo imaging of resected specimens. If the surgeon considered it safe, up to a maximum of 10 study related biopsies were taken from the regions with Compound 1 fluorescence that were otherwise not suspected as tumor clinically. Feasibility to image tumors with Compound 1 using multiple NIR cameras was evaluated.
Intraoperative images and videos of “open surgery” were obtained using either the NOVADAQ SPY Elite or the SurgVision Explorer Air. The distance of the camera to the tumor was approximately 20 cm for the Explorer Air and 30 cm for the NOVADAQ SPY, according to manual instructions. The NOVADAQ SPY camera was only able to make fluorescent videos, which could be converted to images during post-processing. The settings for raw data acquisition for this camera were fixed. For the Explorer Air, attempt was made to use the same settings (exposure time and gain) for each patient to allow direct comparison between the images obtained from both the systems, however, depending on the amount of fluorescence visible during surgery, adjustments were needed in some cases due to saturation of the camera system. In some patients, the Olympus NIR laparoscope and Da Vinci Firefly camera systems were used when no open surgery was performed. Systems were used according to the manufacturer's manual.
First, pre-excision fluorescence images and/or movies of the tumor and surrounding areas were made. After surgical excision, images of the wound bed were obtained. In cases where a fluorescence region was visible in the wound bed, a biopsy was taken when feasible, and the excised specimen imaged on all sides on the back table in the operating room. If applicable, lymph nodes were imaged when possible in situ and on the back table, after which the wound bed of the lymph node dissection was imaged again.
Designated imaging study staff performed fluorescence imaging. The surgeon was blinded to the pre-excision imaging to avoid any bias on standard surgery, but was able to look at a second monitor for white-light images while performing the surgical procedure. The surgeon assisted in the wound bed and back table imaging. During the imaging procedure, the ambient light in the surgical theatre was switched off to prevent possible interaction with the fluorescence imaging procedure itself.
Images were processed using Fiji (ImageJ, version 2.0.0). Images were scaled on a per-patient basis, based on the maximum and minimum fluorescent intensity per pixel.
Immediately after excision, the whole specimen was imaged on all 6 resection planes (e.g., frontal, dorsal, lateral, medial, caudal and cranial) using both the designated intraoperative camera system as well as the LI-COR PEARL® Trilogy system within a maximum duration of 60 minutes after surgical excision of the specimen (intraoperative back table imaging). […] Specimens were inked with blue and black ink to mark resection planes.
A macroscopic correlation between visible white light of the tumor areas and corresponding fluorescence images was made. After drawing ROIs containing macroscopic tumor and ROIs containing background, MFI of both tumor and background areas were calculated. Fluorescence ratios (CNR, TBR) were calculated on a per patient basis (3 measurements per patient) following the calculations described above.

occult lesions = assay: Detection of occult disease by Compound 1 fluorescence; format: in vivo, human
Source text: as §1
Compound 1 fluorescence detected 5 additional occult lesions (1 patient with HNSCC and 4 patients with BC) otherwise missed by SOC preoperative surgery or during surgery or postoperative pathology. In 1 patient with HNSCC (ON1113) who had both a fluorescent and histopathological positive surgical margin, a satellite metastasis that was otherwise undetected by standard-of-care surgery was detected in the wound bed by Compound 1 fluorescence image-guided surgery.

## PEO90-140-b-P(DBA60-150-r-ICG0-3-r-AMA0-3) [Compound 1]
[1]; 0 months
  % ICG 784 nm (% wt): 1.3%
  Appearance: Pass
  Assay RID - Polymeric Content SEC (% wt): 96.4%
  Content 784 nm (% wt): 80.9%
  Identification - SEC (RT): Pass
  Impurities Specified: ICG-like: 1.9%
  Microbial Limits Total aerobic count: <1 cfu/mg
  Microbial Limits Total yeast and mold: <1 cfu/mg
  Total Impurities: 1.9%
  Water Content: 0.48%
[1]; 3.0 mg/mL injection, the duration thus far
  Duration stable at long-term storage condition: up to 24 months
[1]; 1 month
  % ICG 784 nm (% wt): 1.4%
  Appearance: Pass
  Assay RID - Polymeric Content SEC (% wt): 98.5%
  Content 784 nm (% wt): 82.0%
  Identification - SEC (RT): Pass
  Impurities Specified: ICG-like: 1.8%
  Total Impurities: 1.8%
  Water Content: 0.33%
[1]; 6 months
  % ICG 784 nm (% wt): 1.4%
  Appearance: Pass
  Assay RID - Polymeric Content SEC (% wt): 102.3%
  Content 784 nm (% wt): 86.2%
  Identification - SEC (RT): Pass
  Impurities Specified: ICG-like: 1.7%
  Total Impurities: 1.7%
  Water Content: 0.54%
[1]; 12 months
  % ICG 784 nm (% wt): 1.3%
  Appearance: Pass
  Assay RID - Polymeric Content SEC (% wt): 90.4%
  Content 784 nm (% wt): 74.7%
  Identification - SEC (RT): Pass
  Impurities Specified: ICG-like: 1.7%
  Microbial Limits Total aerobic count: <1 cfu/mg
  Microbial Limits Total yeast and mold: <1 cfu/mg
  Total Impurities: 1.7%
  Water Content: 0.74%
[1]; 18 months
  % ICG 784 nm (% wt): 1.5%
  Appearance: Pass
  Assay RID - Polymeric Content SEC (% wt): 100.4%
  Content 784 nm (% wt): 94.7%
  Identification - SEC (RT): Pass
  Impurities Specified: ICG-like: 0.6%
  Total Impurities: 0.6%
  Water Content: 0.64%
[1]; 24 months
  % ICG 784 nm (% wt): 1.5%
  Appearance: Pass
  Assay RID - Polymeric Content SEC (% wt): 99.7%
  Content 784 nm (% wt): 98.1%
  Identification - SEC (RT): Pass
  Impurities Specified: ICG-like: 0.6%
  Microbial Limits Total aerobic count: <1 cfu/mg
  Microbial Limits Total yeast and mold: <1 cfu/mg
  Total Impurities: 0.6%
  Water Content: 0.51%
[2]; 0.1 mg/kg, HNSCC
  In Vivo CNR: 2.9 and 21.5 and 3.3
  In Vivo TBR: 1.7 (2×) and 5.7
[2]; 0.5 mg/kg, BC
  In Vivo CNR: 2.5
  In Vivo TBR: 1.6
[2]; 0.5 mg/kg, HNSCC
  In Vivo CNR: 17.3 and 29.3
  In Vivo TBR: 3.3 and 5.0
[2]; 0.8 mg/kg, BC
  In Vivo CNR: 12.7
  In Vivo TBR: 3.7
[2]; 0.8 mg/kg, HNSCC
  In Vivo CNR: 4.1
  In Vivo TBR: 2.7
[2]; 1.2 mg/kg, Phase 1a and 1b, all tumor types
  Patients for whom in vivo (intraoperative) imaging was feasible: 11 of 18 and 11 of the 18
[2]; 1.2 mg/kg, BC
  Patients for whom in vivo imaging was feasible: 3 of 5
  In Vivo CNR: 7.8 and 9.2 and 1.3
  In Vivo TBR: 3.9 and 3.4 and 1.2
[2]; 1.2 mg/kg, CRC
  Patients for whom in vivo imaging was feasible: 1 of 3
  In Vivo CNR: 7.4
  In Vivo TBR: 2.4
[2]; 1.2 mg/kg, EC
  Patients for whom in vivo imaging was feasible: 0 of 3
[2]; 1.2 mg/kg, HNSCC
  Patients for whom in vivo imaging was feasible: 7 of 7
  In Vivo CNR: 28.7 and 5.8 and 20.8 and 29.9 and 3.4 and 2.8 and 3.5
  In Vivo TBR: 4.7 and 2.1 and 2.9 and 5.4 and 2.3 and 1.8 and 2.7
[2]; 1.2 mg/kg, mucosal tumors (HNSCC), interquartile range of 1.4
  Median in vivo TBR: 2.6
[2]; 1.2 mg/kg, mucosal tumors (HNSCC), interquartile range of 17.6
  Median in vivo CNR: 5.6
[2]; Phase 1, all 4 tumor types
  Patients in whom fluorescence imaging was feasible (patients with viable tumors): 29 out of 30
[2]; Phase 1a, BC
  Patient tumors showing Compound 1 fluorescence intraoperatively: Two of the 7 and 2 of 7
[2]; Phase 1a, HNSCC
  Patient tumors showing Compound 1 fluorescence intraoperatively: 8 and 8 of 8
[2]; Phase 1a, in vivo tumor and postoperative specimen fluorescence
  CNR and TBR values: 2-15
[2]; Phase 1b, 3 EC tumors, extraluminal imaging, 1.2 mg/kg
  Intraoperative detection of intraluminal EC tumors: not detected
[2]; Phase 1b, BC, 1.2 mg/kg
  Patient tumors in which Compound 1 fluoresced intraoperatively: 3 of 4
[2]; Phase 1b, CRC, 1.2 mg/kg
  Patient tumors in which Compound 1 fluoresced intraoperatively: 2 of 3
[2]; Phase 1b, HNSCC, 1.2 mg/kg
  Patient tumors in which Compound 1 fluoresced intraoperatively: 5 of 5
[2]; Phase 1b, all tumor types, 1.2 mg/kg
  Patient tumors in which Compound 1 fluoresced intraoperatively: 10/15
[2]; CRC
  Tumors visualized intraoperatively by Compound 1 fluorescence: 2 of 3
[2]; CRC (distant rectal tumor)
  Tumors that could not be visualized intraoperatively: 1 of 3
[2]; HNSCC
  Tumors visualized intraoperatively by Compound 1 fluorescence: 13
[2]; deeper seated BC
  Tumors that could not be visualized intraoperatively: 6 of 11
[2]; intraluminal EC
  Tumors that could not be visualized intraoperatively: 2 of 3
[2]; superficially seated BC
  Tumors visualized intraoperatively by Compound 1 fluorescence: 5 of 11
[2]; all patients with feasible intraoperative imaging
  Intraoperative TBR and CNR values: high
Occult lesions; 1 patient with HNSCC and 4 patients with BC
  Additional occult lesions detected: 5
Occult lesions; missed by routine surgery, confirmed by pathology
  Other occult tumors detected by in vivo wound-bed imaging: 2
Occult lesions; pathology specimens
  Additional satellite lesions and second primaries detected ex vivo: 3
